Results on 6 molecules are retold here after patent US6824971 (SLOAN KETTERING INSTITUTE FOR CANCER RESEARCH, dated 2004).

Substitutions are numbered along the chain they refer to. In names and notes the source's numbering stands.

T1: Recombinant Smad4/DPC4 C-terminal domain, residues 319-552 (human)
T1 chain: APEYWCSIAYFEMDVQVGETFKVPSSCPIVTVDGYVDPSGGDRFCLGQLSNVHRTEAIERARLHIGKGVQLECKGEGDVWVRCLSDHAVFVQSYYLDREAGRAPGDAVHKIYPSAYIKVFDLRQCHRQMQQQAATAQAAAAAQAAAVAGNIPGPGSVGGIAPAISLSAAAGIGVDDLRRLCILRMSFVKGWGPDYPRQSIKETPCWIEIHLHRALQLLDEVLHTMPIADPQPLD

B1: Smad4/DPC4 C-terminal domain, amino acids 294-552 (other)
chain: MPPHPGHYWPVHNELAFQPPISNHPAPEYWCSIAYFEMDVQVGETFKVPSSCPIVTVDGYVDPSGGDRFCLGQLSNVHRTEAIERARLHIGKGVQLECKGEGDVWVRCLSDHAVFVQSYYLDREAGRAPGDAVHKIYPSAYIKVFDLRQCHRQMQQQAATAQAAAAAQAAAVAGNIPGPGSVGGIAPAISLSAAAGIGVDDLRRLCILRMSFVKGWGPDYPRQSIKETPCWIEIHLHRALQLLDEVLHTMPIADPQPLD
notes: Construct for mammalian cells (pCMV5), Flag- or HA-tagged; also called Smad4(C); Smad4 C domain
B2: Smad4/DPC4 C-terminal domain Arg361Cys (other)
chain: B1 chain with R68C
notes: HA-tagged; tumor-derived trimer interface mutation; also called R361C
B3: Smad4/DPC4 C-terminal domain Gly508Ser (other)
chain: B1 chain with G215S
notes: HA-tagged; also called G508S; developmental L3 loop mutation
B4: Smad4/DPC4 C-terminal domain Val370Asp (other)
chain: B1 chain with V77D
notes: HA-tagged; tumor-derived trimer interface mutation; also called V370D
B5: Recombinant Smad4/DPC4 C-terminal domain, residues 319-552, O70437 319-552 (protein)
chain: T1 chain
B6: Smad4/DPC4 full-length Gly508Ser (other)
chain: MDNMSITNTPTSNDACLSIVHSLMCHRQGGESETFAKRAIESLVKKLKEKKDELDSLITAITTNGAHPSKCVTIQRTLDGRLQVAGRKGFPHVIYARLWRWPDLHKNELKHVKYCQYAFDLKCDSVCVNPYHYERVVSPGIDLSGLTLQSNAPSSMMVKDEYVHDFEGQPSLSTEGHSIQTIQHPPSNRASTETYSTPALLAPSESNATSTANFPNIPVASTSQPASILGGSHSEGLLQIASGPQPGQQQNGFTGQPATYHHNSTTTWTGSRTAPYTPNLPHHQNGHLQHHPPMPPHPGHYWPVHNELAFQPPISNHPAPEYWCSIAYFEMDVQVGETFKVPSSCPIVTVDGYVDPSGGDRFCLGQLSNVHRTEAIERARLHIGKGVQLECKGEGDVWVRCLSDHAVFVQSYYLDREAGRAPGDAVHKIYPSAYIKVFDLRQCHRQMQQQAATAQAAAAAQAAAVAGNIPGPGSVGGIAPAISLSAAAGIGVDDLRRLCILRMSFVKSWGPDYPRQSIKETPCWIEIHLHRALQLLDEVLHTMPIADPQPLD
notes: Full-length point mutant; also called G508S

Data set [1] deals with the molecule itself. Kind of data set: co-IP of differentially tagged constructs, COS cells. The text has this: (§1) The full-length Smad4/DPC4 and Smad2, Smad4/DPC4-C-terminal domain encoding amino acids 294–552 (SEQ ID NO.:1) and the Smad2-C-terminal domain encoding amino acids 248–467 (SEQ ID NO.:3) were subcloned into the mammalian expression vector pCMV5. All Smad4/DPC4 point mutations were generated by a polymerase chain reaction (PCR)-based method and were confirmed by DNA sequencing. Mammalian COS-1 cells were transiently transfected with the indicated FLAG- and HA-tagged constructs by the DEAE-dextran method. Two days after transfection, cells were incubated with 200 pM TGF-β1 for one hour. Cells were lysed and subjected to immunoprecipitation followed by immunoblot as described. The wash buffers contained 150 mM NaCl for all immunoprecipitation experiments except for the homo-oligomerization assays of the full-length wild-type Smad4/DPC4 and point mutants, where 250 mM NaCl was employed to better differentiate the WT and mutant activities.
(§2) To assay for homo-oligomerization, mammalian COS-1 cells were transiently transfected with Flag-tagged wild-type Smad4/DPC4-C-terminal domain (WT) and HA-tagged WT or mutant constructs. For hetero-oligomerization, cells were transfected with Flag-tagged Smad2 C-terminal domain and HA-tagged Smad4/DPC4 C-terminal domain WT or mutant constructs together with constitutively active TGF-β type I receptor construct. […]

Data set [2] addresses B1. Kind of data set: co-IP, Flag-WT with HA-mutant, COS-1 cells.
From the text: as §1, §2

The target in data set [3] is B1. Kind of data set: co-IP, Flag-WT C-terminal domain with HA-mutant, COS-1 cells.
From the text: as §1, §2

Data set [4] has as its target T1, Recombinant Smad4/DPC4 C-terminal …. Kind of data set: crystal structure, trimer (three interfaces in total). Particulars: remark: other sources report otherwise.
Data set [5] deals with the molecule itself. Kind of data set: gel filtration of recombinant full-length protein. Here is the method: The full-length Smad4/DPC4 proteins, both wild-type and point mutants, were overexpressed at room temperature in E.coli using a pET vector (Novagen). Smad4/DPC4 protein in the soluble fraction of the E. coli lysate was partially purified by ion exchange chromatography (Q-Sepharose) and was applied to a gel filtration column (Superdex200) in 50 mM Tris, 200 mM NaCl, 5 mM DTT, pH 8.0. Aliquots from the fractions corresponding to molecular weight standards between 440 kDa and 25 kDa were taken for immunoblots with a rabbit polyclonal antibody raised against the Smad4/DPC4-C-terminal domain. The results were visualized with the ECL Western analysis and detection system (Amersham). In addition, the WT full-length Smad4/DPC4 was also cloned as a GST-fusion protein and purified to near homogeneity over a glutathione column. The fusion protein was then cleaved with Thrombin and the. Smad4/DPC4 protein was futher purified by anion-exchange chromatography (Source 15Q column).
The fractions were visualized with Coomassie staining. […] Gel filtration fractions of partially purified wild-type and mutant Smad4/DPC4 proteins were analyzed by immunoblots with anti-Smad4/DPC4 antibody.
On the technique in general: In gel filtration, larger molecules generally elute earlier.

On to B1, for which the binding result in data set [1] was “binds”.

In the case of B2, the binding result in data set [2] is listed as “no binding”.

With B3, the binding result in data set [3] is reported as “binds”.

Consider B4, for which, in data set [2], the binding result is recorded as “no binding”.

With B5, the buried surface area in data set [4] was 4800 Å^2.

For the molecule B6, in data set [5], the binding result is listed as “binds”.
